Results: patent US20030158387

Columns and labels:
[1] = system: T1, full size human chemokine HCC-1 (residues 1-74)
T1 sequence: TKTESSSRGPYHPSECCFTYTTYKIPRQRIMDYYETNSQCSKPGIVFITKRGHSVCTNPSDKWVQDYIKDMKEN

[2] = system: processed human chemokine PHC-1 (HCC-1[9-74])

Substance	proteolytic cleavage (tryptic digestion, enzyme/substrate-ratio (w/w) 1/100, one hour) [1]	proteolytic degradation (tryptic digestion with increased incubation time) [2]	activity of 50 nM PHC-1 after incubation with 10 or 100 IU purified urokinase [2]
trypsin	the 74 residue peptide was in part cleaved into smaller fragments. One cleavage product, the newly identified biologically active peptide PHC-1	trypsin generated PHC-1 then degrades PHC-1 into inactive fragments when the incubation time is increased	–
urokinase (purified CHOAY urokinase, Sanofi Wintrop; uPA)	–	–	No change of activity was observed after an incubation of 90 min at 37 °C
